T1: Abp1 SH3 (ABP1_YEAST), P15891
T1 chain: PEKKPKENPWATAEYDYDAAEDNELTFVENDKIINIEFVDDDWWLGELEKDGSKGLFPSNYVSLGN


Molecular target: T1, Abp1 SH3 (ABP1_YEAST), P15891
Assay: SPOT array

| Binder | normalised SPOT signal, Boehringer light units (BLU); mean over the file's lines of this peptide |
| --- | --- |
| TLITFMVPRFDKP [YBR115C 740-752] | 0 |
| TFTGLIGMNDPPRP [YGL167C 571-584] | 83.7 |
| THTNLAPPPTMKP [YHR102W 753-765] | 136 |
| THALGAAIDPPRRP [YCL048W 21-34] | 53.7 |
| TLTSSSNPTIPKP [YBL047C 1258-1270] | 129 |
| TKVSNEYPNSPKP [YGL122C 280-292] | 146 |
| TKVTNSKFRTPLRP [YBL009W 142-155] | 137 |
| TKSNGKDKSRPPRP [YIL095W 739-752] | 141 |
| TMNTIYVPPLRRP [YGR127W 236-248] | 3360 |
| TKLSTHKASSPSRP [YHR102W 715-728] | 170 |
| TLRLLYNPSLSKP [YHR100C 9-21] | 61 |

The next lines start with the values.

| normalised SPOT signal, Boehringer light units (BLU); mean over the file's lines of this peptide | Binder |
| --- | --- |
| 1330 | TKAKKEKPKPPKP [YMR044W 280-292] |
| 54 | TLAKELYPGNFRP [YPL015C 81-93] |
| 1030 | TGVSIKNPRPSRP [YPR096C 5-17] |
| 180 | TIWNTIIKFDPGRP [YKL178C 248-261] |
| 193 | TLEYLRSPKLYKP [YJR024C 74-86] |
| 133 | TKFDDEPPLADKP [YML109W 280-292] |
| 451 | TMFSGVSAFVPNRP [YJR061W 698-711] |
| 87.4 | TKKAKIIFTAPTRP [YIR002C 128-141] |
| 67.7 | TKSEYTNAELPAKP [YMR011W 36-49] |
| 133 | TIKRKRAYSLPLRP [YKR098C 130-143] |
| 98.3 | TFEEFQSPIYRKP [YIL110W 72-84] |
| 127 | TIADTLQPGLPHKP [YJL045W 457-470] |
